Changes are numbered by the printed parent chain. One block for each binder: values may come before it.
Columns and labels:
[1] = molecular target: T1, human CD47 on CCRF-CEM cells (CD47 positive cells) (human, UniProt Q08722 19-323); assay: FACS binding
[2] = molecular target: T2, recombinant N-terminal extracellular domain protein of human CD47 molecule (hCD47) (UniProt Q08722 19-135); assay: BLI; affinity
T2 chain: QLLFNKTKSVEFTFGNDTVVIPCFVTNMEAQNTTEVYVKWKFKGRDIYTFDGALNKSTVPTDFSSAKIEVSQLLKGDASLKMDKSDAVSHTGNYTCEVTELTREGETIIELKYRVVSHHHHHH

[3] = molecular target: T2, recombinant N-terminal extracellular …; assay: ELISA binding
[4] = molecular target: T2, recombinant N-terminal extracellular …; assay: BLI; avid
[5] = molecular target: T2, recombinant N-terminal extracellular …; assay: ELISA blocking of CD47-SIRPα
[6] = molecular target: T1, human CD47 on CCRF-CEM cells (CD47 …); assay: FACS blocking of CD47-SIRPα

EC50 [1]: 48.2 pM
Kd [2]: 41000 pM
EC50 [3]: 28.3 pM
Kd [4]: 600 pM
IC50 [5]: 53 pM
IC50 [6]: 134 pM
B2: h15G6 VH-v7/VK-v1 (antibody, V domains shown)
VH: QVQLVQSGAELKKPGASVKVSCKASGYTFTDYYIHWVRQAPGQGLEWMGWIYPGSGNTKYNEKFQGRVTLTVDTSTSTVYMELSSLRSDDTAVYYCARRREDSFDYWGQGTLVTVSS
VL: DIVMTQSPDSLAVSLGERATINCKSSQSLLYSSNQKNYLAWYQRKPGQPPKLLIYWASNRESGVPDRFSGSGSGTDFTLTISSLQAEDVAVYYCQQFYRYPLTFGQGTKVEIK

EC50 [1]: 48.8 pM
Kd [2]: 56000 pM
EC50 [3]: 22.9 pM
Kd [4]: 710 pM
IC50 [5]: 84.3 pM
IC50 [6]: 39.7 pM
B3: h15G6 VH-v7/VK-v2 (antibody, V domains shown)
VH: B2 VH
VL: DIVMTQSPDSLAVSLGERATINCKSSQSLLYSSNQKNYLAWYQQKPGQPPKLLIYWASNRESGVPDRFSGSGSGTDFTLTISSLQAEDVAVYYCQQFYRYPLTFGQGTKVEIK

The next lines start with the binder.

B1: h15G6 VH-v5/VK-v1 (antibody, V domains shown)
VH: B2 VH with L11V, L70M, V72R, T76I, V79A
VL: B2 VL
EC50 [1]: 48.3 pM
Kd [2]: 23000 pM
EC50 [3]: 31.4 pM
Kd [4]: 200 pM
IC50 [5]: 118 pM
IC50 [6]: 48.8 pM

B4: h15G6 VH-v1/VK-v1 (antibody, V domains shown)
VH: B2 VH with V2I, L11V, T76S, Y95F, L112T, V113L
VL: B2 VL
EC50 [1]: 60.2 pM
Kd [2]: 18000 pM
EC50 [3]: 92 pM
Kd [4]: 410 pM
IC50 [5]: 94.2 pM
IC50 [6]: 68.6 pM

Reference: patent publication US20210292412A1 (published 2021)
